A word on the Km: it is the substrate concentration at which the rate is half of its maximum. One may read the kcat as the number of substrate molecules converted per active site and unit of time at saturation.

Substrate in data set [1]: Nc1ncnc2c1ncn2[C@@H]1O[C@H](COP(=O)(O)OP(=O)(O)OP(=O)(O)O)[C@@H](O)[C@H]1O
Put plainly: purified protein. The format is biochemical, Arabidopsis thaliana. As to conditions: apparent Km, 2.5 mM shikimate fixed, 100 mM Tris-HCl pH 8.0, 25°C.

Substrate in data set [2]: O=C(O)C1=C[C@@H](O)[C@@H](O)[C@H](O)C1
Put plainly: purified protein. In kind it is biochemical, Arabidopsis thaliana. Particulars: apparent Km, 2.5 mM ATP fixed, 100 mM Tris-HCl pH 8.0, 25°C.

B1: AtSK1Δ55 (Arabidopsis thaliana) (protein)
chain: DQRRAVSPAVSCSDNNSSALLETGSVYPFDEDILKRKAEEVKPYLNGRSMYLVGMMGSGKTTVGKLMSKVLGYTFFDCDTLIEQAMNGTSVAEIFVHHGENFFRGKETDALKKLSSRYQVVVSTGGGAVIRPINWKYMHKGISIWLDVPLEALAHRIAAVGTDSRPLLHDESGDAYSVAFKRLSAIWDERGEAYTNANARVSLENIAAKRGYKNVSDLTPTEIAIEAFEQVLSFLEKEETMEIPDGDL
notes: predicted N-terminal chloroplast transit peptide removed (55 residues truncated)
Consider B1, for which, in data set [1], the Km came to 218.02 ± 12.27 µM and the kcat was 162 ± 3.01 s⁻¹. In addition, in data set [2], the Km came out at 648.32 ± 23.45 µM and the kcat is 148 ± 2.32 s⁻¹.

B2: AtSK2Δ55 (Arabidopsis thaliana) (protein)
chain: LRSVSDKNSSALLETGSLLHSPFDEEQQILKKKAEEVKPYLNGRSMYLVGMMGSGKTTVGKIMARSLGYTFFDCDTLIEQAMKGTSVAEIFEHFGESVFREKETEALKKLSLMYHQVVVSTGGGAVIRPINWKYMHKGISIWLDVPLEALAHRIAAVGTGSRPLLHDDESGDTYTAALNRLSTIWDARGEAYTKASARVSLENITLKLGYRSVSDLTPAEIAIEAFEQVQSYLEKEDGMARPDGL
notes: as for B1
With B2, the values for the Km in data set [1] and in data set [2] were 246.7 ± 22.56 µM and 422.15 ± 31.16 µM, respectively. In addition, the turnover number (kcat) in data set [1] was found to be 149 ± 5.04 s⁻¹; in data set [2], 136 ± 4.97 s⁻¹.

For the origin of these results see PMC2593004, “Evolutionary Diversification of Plant Shikimate Kinase Gene Duplicates” (PLoS Genetics, 2008).
